Results: article PMC11931385, “Structural and functional analysis of cancer-associated missense variants in the retinoblastoma protein pocket domain” (The Journal of Biological Chemistry, 2025)
Substitutions are numbered along the chain they refer to. In names and notes the source's numbering stands. No end group written: not given here. TMR = tetramethyl rhodamine dye

T1: Rb^P S463L (human, UniProt P06400 380-788, S463L)
T1 construct: also called variant 10
T1 sequence (looked up): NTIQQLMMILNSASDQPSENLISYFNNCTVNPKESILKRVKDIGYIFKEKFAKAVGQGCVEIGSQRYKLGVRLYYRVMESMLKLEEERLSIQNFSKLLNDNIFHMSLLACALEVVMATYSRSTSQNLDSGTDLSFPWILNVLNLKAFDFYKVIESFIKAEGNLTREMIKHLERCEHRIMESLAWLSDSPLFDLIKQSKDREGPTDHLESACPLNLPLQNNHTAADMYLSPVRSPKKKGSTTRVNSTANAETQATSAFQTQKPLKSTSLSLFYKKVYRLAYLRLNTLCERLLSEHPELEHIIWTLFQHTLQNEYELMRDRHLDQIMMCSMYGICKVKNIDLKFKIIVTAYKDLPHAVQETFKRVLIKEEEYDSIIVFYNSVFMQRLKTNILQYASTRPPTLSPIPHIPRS

T2: Rb^P H555Y (human, UniProt P06400 380-788, H555Y)
T2 construct: also called variant 29
T2 sequence (looked up): T1 sequence (looked up) with L84S, H176Y

T3: Rb^P R621C (human, UniProt P06400 380-788, R621C)
T3 construct: also called variant 41
T3 sequence (looked up): T1 sequence (looked up) with L84S, R242C

T4: Rb^P H673P (human, UniProt P06400 380-788, H673P)
T4 construct: also called variant 54
T4 sequence (looked up): T1 sequence (looked up) with L84S, H294P

T5: Rb^P H673Y (human, UniProt P06400 380-788, H673Y)
T5 construct: also called variant 55
T5 sequence (looked up): T1 sequence (looked up) with L84S, H294Y

B1: TMR-E2F1^TD, peptide of the E2F1 transactivation domain (peptide)
peptide: {TMR}-GEGIRDLFDCDFGDLTPLD
notes: also called E2F^TD; source: synthetic peptide, bought: GenScript
B2: TMR-E7^LxCxE, LxCxE peptide of the E7 oncoprotein from HPV (peptide)
peptide: DLYCYEQLN
modifications: also: TMR label, position not given here
notes: source: synthetic peptide, bought: GenScript

Assays:
Experiment in all cases: fluorescence polarisation; 25 °C; unlabeled Rb^P titrated against 1.5 nM TMR-E2F1^TD or 7.5 nM TMR-E7^LxCxE; 25 mM Tris pH 8.0, 200 mM NaCl, 1 mM DTT, 0.1% Tween-20; 2 min incubation; quadratic fit; apparent Kd for the variants, Kd for WT
Details in all cases: both partners purified
Rb^P S463L = target: T1, Rb^P S463L
Rb^P H555Y = target: T2, Rb^P H555Y
Rb^P R621C = target: T3, Rb^P R621C
Rb^P H673P = target: T4, Rb^P H673P
Rb^P H673Y = target: T5, Rb^P H673Y

Row | Binder | Kd (Rb^P S463L) | Kd (Rb^P H555Y) | Kd (Rb^P R621C) | Kd (Rb^P H673P) | Kd (Rb^P H673Y)
1 | B1 | 26 nM | 158 nM | 22 nM | 42 nM | 26 nM
2 | B2 | 10 nM | 8 nM | 12 nM | 24 nM | 10 nM
